In patent publication US20220265715A1 (EUREKA THERAPEUTICS, published 2022):

Target: T1, biotinylated AFP158/HLA-A*02:01 tetramer (human, biotinylated via the BSP peptide linked to the C-terminal end of the HLA-A*02:01 extracellular domain)
T1 construct: also called AFP158 tetramer; not shown: BSP peptide (BirA biotinylation site) at the C-terminus
Experiment: flow cytometry, AFP158/HLA-A*02:01 tetramer staining of CAR-transduced T cells

| binding result | Binder |
| --- | --- |
| binds | Anti-AFP-CD28z-CAR (other, Chimeric antigen receptor on transduced primary human T cells: anti-AFP/MHC scFv, myc tag, CD28 TM, CD28 costimulatory domain, CD3zeta; also called αAFP -CD28z CAR) QSVLTQPASVSGSPGQSITISCTGTSSDVGGYNYVSWYQQHPGKAPKLMIYDVNNRPSEVSNRFSGSKSGNTASLTISGLQAEDEADYYCSSYTTGSRAVFGGGTKLTVLGSRGGGGSGGGGSGGGGSLEMAEVQLVQSGAEVKKPGESLTISCKASGYSFPNYWITWVRQMSGGGLEWMGRIDPGDSYTTYNPSFQGHVTISIDKSTNTAYLHWNSLKASDTAMYYCARYYVSLVDIWGQGTLVTVSSEQKLISEEDLAAAIEVMYPPPYLDNEKSNGTIIHVKGKHLCPSPLFPGPSKPFWVLVVVGGVLACYSLLVTVAFIIFWVRSKRSRLLHSDYMNMTPRRPGPTRKHYQPYAPPRDFAAYRSRVKFSRSADAPAYQQGQNQLYNELNLGRREEYDVLDKRRGRDPEMGGKPRRKNPQEGLYNELQKDKMAEAYSEIGMKGERRRGKGHDGLYQGLSTATKDTYDALHMQALPPR |
| binds | Anti-AFP-CD30z-CAR (other, Chimeric antigen receptor on transduced primary human T cells: anti-AFP/MHC scFv, myc tag, CD30 TM, CD30 costimulatory domain, CD3zeta; also called αAFP -CD30z CAR) QSVLTQPASVSGSPGQSITISCTGTSSDVGGYNYVSWYQQHPGKAPKLMIYDVNNRPSEVSNRFSGSKSGNTASLTISGLQAEDEADYYCSSYTTGSRAVFGGGTKLTVLGSRGGGGSGGGGSGGGGSLEMAEVQLVQSGAEVKKPGESLTISCKASGYSFPNYWITWVRQMSGGGLEWMGRIDPGDSYTTYNPSFQGHVTISIDKSTNTAYLHWNSLKASDTAMYYCARYYVSLVDIWGQGTLVTVSSEQKLISEEDLAAATGAPPLGTQPDCNPTPENGEAPASTSPTQSLLVDSQASKTLPIPTSAPVALSSTGKPVLDAGPVLFWVILVLVVVVGSSAFLLCHRRACRKRIRQKLHLCYPVQTSQPKLELVDSRPRRSSTQLRSGASVTEPVAEERGLMSQPLMETCHSVGAAYLESLPLQDASPAGGPSSPRDLPEPRVSTEHTNNKIEKIYIMKADTVIVGTVKAELPEGRGLAGPAEPELEEELEADHTPHYPEQETEPPLGSCSDVMLSVEEEGKEDPLPTAASGKRVKFSRSADAPAYQQGQNQLYNELNLGRREEYDVLDKRRGRDPEMGGKPRRKNPQEGLYNELQKDKMAEAYSEIGMKGERRRGKGHDGLYQGLSTATKDTYDALHMQALPPR |
